Results published in the nanobody polyreactivity screen of Harvey et al. (2022).

Assay: yeast display, Sf9 membrane polyspecificity reagent, FACS + sequencing; frameworks hold sequencing errors
Procedure, shortened: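 Galactose induction of a Saccharomyces cerevisiae BJ5465 synthetic nanobody display library ran 36–48 hours. The cells were then stained for 1 hour at 4 °C with 10% biotinylated, detergent-solubilized Sf9 membrane reagent, pulled down on streptavidin microbeads and FACS-sorted into low and high (top ~1%) gates on expression and reagent-binding fluorescence. Labels for polyreactivity follow the gate of origin.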

Row | Sequence | polyreactivity (PSR sort gate)
1 | QVQLVESGGGLVQAGGSLRLSCAASGRIFGSYTMGWYRQAPGKERELVAGISRRGGSTYYADSVKGRFTISRDNAKNTVYLQMNSLKPEDTAVYYCAAEVYYFYFYIMDYWGQGTQVTVSS | high polyreactivity
2 | QVQLVESGGGLVQAGGSLRLSCASSGRTFALYAMGWYRKAPGKERELVAGITFRGGSTYYADSVKGRFTISRDNAKKTVYLQMISQKPEDNAVYYCAAERWRWYYSWNMDYWGQCTQVTVSS | high polyreactivity
3 | QVQLVESGGGLVQAGGSLRLSCAASGITFALYAMGWYRKAPGKERELVAAISYSGGRTYYADSVKGRFTISRDTAKNTVYLQMNSLKPEDTAVYYCAAGGSGSGPYGYGYWGQGTQVTVSS | high polyreactivity
4 | QVQLVESGGGLVQAGGSLRLSCAASGRTVYANAMGWYRQAPGKERELVAAISTGGDGTYYADSVKGRFTISRDNAKNPVYLQMNSQKPEDTAVYYCAVRHRASGMLYDYWGQGTQVTVSS | low polyreactivity
5 | QVQLVESGGGLVQAGGSLRLSCAASGRIFLWYAMGWYRQAPGKERELVAAISSNGGSTRYADSVKGRFTFSRDNAKNTVYLQMNSLKPEDTAVYYCNADVHWNRYPYGGNGYGYWGQGTQVTVSS | low polyreactivity
6 | QVQLVESGGGLVQAGGSLRLSCAASGFTFRWYAMGWYRQAPGKERELVAAISSGGGSTYYADSVKGRFTISRDNAKITVYLQMNSLKPEDTAVYYCNSRGTRIASGHYYWGQGTQVTVSS | high polyreactivity
7 | QVQRVESGGGLVQEGRSLRLSCAASGFIFSVYAMGWYRQAQGKERELVAAMTWNGGRTYYADSVKGRFRISRDHAKNTVYLQMNSVKPEDTAVYYCAADSRGALNSVYRYGSIVEGDYWGQGTQVTVSS | low polyreactivity
8 | QVQLVESGGGIVQAGGSLRLSCAATGRIFTGYTMGWYRQAPGKERELVAAISQSGGRTYYADSVKGRFTISRDNAKHTVYLQMNSLKPEDTAVYYCAAVWSRTGYDYCGQGTQVTVSS | high polyreactivity
9 | QVQLVESGGGLVQAGGSLRLSCAASGFYYYAMGWYRQAPGKERELVAVITYSGGSTYYADSVKGRFTISRDNAKNTVYLQMNSLKPEDTAVYYCAADDYYVALPGLYDYWGQGTQVTVSS | low polyreactivity
10 | QVQLVESVGGLVQAGGSLRLSCAASGRIFPVYAMGLYRQAPGKERELVAAISKRDGSTSYADSVKGRFTISRDNAKNTVYIQMNSLKPEDTAVYYCNARNHVQVLFRRDYWGQGTQVTVSS | low polyreactivity
11 | QVQLVESGGGLVQAGGSLRLSCAACGITFLSNAMGWYRQAPGKERELVAAITTSGGTTYADSVKGRFTISRDNAKNTVYLQMNSLKPEDTAVYYCNAVGYTPRKPSKFDYWGQGTQVTVSS | low polyreactivity
12 | QVQLVESGGGLVQAGGSLRLSCAASGSINELYAKGWYRQAPGKERELVASITWRGGSTYYADSVKGRFTISRDNAKNTVYLQMNSLKPEDTAVYDCAADVPTASGTYDYWGQGTQVTVSS | low polyreactivity
13 | QVQLEESGGGLVQAGGSLRLSCAASGSTFCYYPMGWYRQAPGKEREFVAAISSSGGSTYYADYVKGRFTISRDNAKNTVYFQMNSLKPEDTAVYYCARVGFPGFYWGQGTEVTVSS | high polyreactivity
14 | QVQLVESGGGLVQAGGSLRLSCAASGIIFRGNAMGWYRQAPGKERELVAAMSKSGGRTYYADSVKGRFTISRDNAKNTVYLQMNSLKPEDTAVYYCAARRSTSYPAGNDYWGQGTQVTVSS | high polyreactivity
15 | QVHLVESGGGLVQAGGRLRLSCAASGIIFRLYGMGWYRQAPGKEREFVATITWRGGRTNYADSVKGRFTIARDNAKNTVYLQMNSLKPEDTAVYYCAKVVRYARSNEYDSWGQGTQVTVSS | low polyreactivity
16 | QVQLVESGGGLVQAGGSLRLSCAASGSTFFSNTMGWYRQAPGKERELVAAITDSGTSTYYADSVKGRFTISRDNAKNTVYLQMNSLKPEDTAVYYCAAYPSGWYDYWGQGTLVTVSS | low polyreactivity
17 | QVQLVESGGGLVQAGGSLRLSCAASGSIFSYNLMGWYRQAPGKERELVAAITRSCGSTYYADSVKGRFTISRDNAKNTVYLQMNSLKQEDTAVYYCAVGWADQDPFIMDFWGQGTQVTVSS | low polyreactivity
18 | QVQLVESAGGLVQAGGSLRLSCAASGFIFRFNAMGWYRQAPGKERELVAAISWSGSSTYYADSVKGRFTISRDNAKNTVYLQMNSLKPEDTAVYYCATSAFYYKIVKGDFYYWGQGTQVTVSS | high polyreactivity
19 | QVQLVESGGGLVQAGGSLRLSCAASGSIFGPYAMGWYRQAPGKERELVAAISTRGGRTYYADSVKGRFTISRDNAKNTVYLQMNSLKPEDTAVYYCNARRSDSRSYDYWGQGTQVTVSS | high polyreactivity
20 | QVQLVESGGGLVQAGGSLRLSCAASGSIFQVYAMGWYRQAPGKEREFVAAISYSGGGTYYADSVKGRFTISRDNAKNSVYLQMNSLKPEDTAVYYCAADVSGWEYDYWGQGTQVTVSS | low polyreactivity
21 | QVQLVESGGGLVQAGGSLRLSCAASRRIIGAYAMGWDRQAPGKEWELVARISWSGGTTYYADSVKGRFPISRDNAKNTVYLQMNSLKPEDTAVYYCAARYSYYVTGGISKYDYWGQGTQVTVSS | low polyreactivity
22 | QVQLVESGGGLVQAGGSLRLSCAASGSTFFRNAKGWYRQAPGKERELVAANSSTGGTTYYAHSVKGRFTISRDNAQNTVYLQMNSLKPEETAVYYCAAAGYIENDGYVQKFEYWGQGTQVTVSS | low polyreactivity

Row | Sequence | polyreactivity (PSR sort gate)
23 | QVQLVESGGGLVQAGGSLRLSCAASGSTFVQYAMGWYRQAPGKERELVAAITRSGGSTYYADSVKGRFTISRDNAKNTVYLQMNSLKPEDTAVYYCAARHYRSRDGYWGQGTQVTVSS | high polyreactivity
24 | QVQLVESGGGLVQAGGSLRLSCAASGITLARNAMGWYRQAPGKERELVASITWSGGTTYYADSVKGRFTISRDNAKNTVYLQMISLKPEDTAVYYCAASAKLHYYRTYRYNYWGQGTQVSVSS | high polyreactivity
25 | QVQLVESGGGLVQAGGSLRLSCAASGRTFDHNAMGWYRQAPGKERELVAAITSRGGSTYYADSVKGRFTISRDIAKYTGYLQMNSLKPEDTAVYYCAARKRSVYGTEYDYLGQGTQVTVSS | high polyreactivity
26 | QVQLVESGGGLVQAGGSLRLSCAASGSTFTYYAMGWYRQAPGKERELVAAITWSGGSTYYADSVKGRFTISRDNAKNTVYLQMNSLKPEDTAVYYCNVYSIWGTYDYWGQGTQVTVSS | low polyreactivity
27 | QVQLVESGGGLVQAGGSLRLSCAASGRTFWTNAMGWYRQAPGKERELVAAISWTTGSTNYADSVKGRFTISRDNAKNTVYLQMNSLKPEDTAVYYWAADSQYGWPEYEYDYWGQGTQVTVSS | low polyreactivity
28 | QVQLVESGGGLVQAGGSLRLSCAASGFTCGYYAMGWYREAPGKEREFVATISYGTGSTYYADSVKGRFTISRDNAKNTVSFQMNSLKPEDTAVYYCNADTWPGEYNGYFSGAYDYWGQGTQVTVSS | high polyreactivity
29 | QVQLVESGGGLVQAGGSLRLSCAASGRTFRLYAMGWYRQAPGKERELVAAIDGNGGSTYYADSVKGRFTISRDNAKNTVYLQMNSLKPEDTAVYYCAVSVSVYLDYRRDHQRGYDYWGQGTQVTVSS | low polyreactivity
30 | QVQLVESGGGLVQAGGSLRLSCAASGSIFNDYAMGWYRQAPGKERELVAAITSSDGRTFYADSVKGRFTISRDNAKNTVYLQMNSLKPEDTAVYYCAAEWTSRYSTYEYWGQGTQVTVSS | low polyreactivity
31 | QFQLVESGGGLVQAGGSLRLSCPASGRIFYYYSMGWYRQAPGKEREFVAAITGRGGSTYYADSVKGRFTISRDNAKYTVYLQMNSLKPEDTADYYCNAGQYFEYYGWYSRYGYWGQGTQVTVSS | low polyreactivity
32 | QVQLVESGGGLVQAGGSLRLSCAASGRTFARYAMGWYRQAPGKERELVAAITRGGSTKYADSVKGRFTISRDNAKNTVYLQMNSLKPEDTAVYYCNKVIVQYTLDRGYWGQGTQVTVSS | high polyreactivity
33 | LVLLVESGGGLVQAGGSLRLSCAASGFSFACYGMGWYRQAPGNDRELVAALSWSGGRTYYADSVTGRFTISRDNAKNTVYLQMNSLKPEDTAVDYCYAYWNPASKYDFWGQGTQVTVTS | high polyreactivity
34 | QVQLVESGGGLVQAGGSLRLSCAASGRIFKVYAMGWYRQAPGKERELVATISRGGSTYYADSVKGRFTISRDNAKNTVYLQMNSLKPEDTAVYYCAKQRERYYWFGAWSYDYWGQGTQVTVSS | low polyreactivity
35 | QVQLVESGGGLVQAGGSLRLSCAASGIIFFIYAMGWYRQAPGKERELVARISIGGSTYYADSVKGRFTISRDNAKNTVYLQMNSLKPEDTAVYYCAARCGGLRATYHYWGQGTQVTVSS | low polyreactivity
36 | QVQLQESGGGLVQAGGSMRLSCAASGSISELRPMGWYRKAPGKERELVAGISTGGSTNYADSVKGRFTISRDNAKNTVYLQMNSQKPEDTAVYYCAAASYGEGTYDYWGQGTQVTVRS | high polyreactivity
37 | QVQLVESGGGLVQAGGSLRLSCAASGSIFGYYAMGWYRQAPGKERELVAAISGSGGSTYYADSVKGRFTISRDNAKYTVYLQMNRLKPEDTAVYYCAAAYHGRHYYWGQGTQVTVSS | high polyreactivity
38 | QVQLVESGGGLVQAGGSLRLSCAASGRIFSHNAMGWYRQAPGKERELVASIRSSSGRTYYADSVKGRITISRDNAKNTVYLQMNSLTPEDTAVYYCAARQYSSKPYLYGYNYWGQGTQVTVSS | high polyreactivity
39 | QVQLVESGGGLVQAGGSLRLSCAASGFTFPFYTMGWYRQAPGKERELVAAITFSGDSTYYADSVKGRFTISRDNAKNTVYLQMNSLKPEDTAVYYCAVASYWGPEYDYWGQGTQVTVSS | low polyreactivity
40 | QVQLVESGGGLVQAGGSLRLSCAASGRTFKFYAMGWYRQAPGKERELVATITSGGSTYYADSVKGRFTISRDNAKNTVYLQMNSLKPEDTAVYYCNKRYRKPGSGWYDSWGQGTQVTVSS | high polyreactivity
41 | QVQLVESGGGLVQAGGSLRLSCAASGFIFRYYAMGWYRQAPGKERELVARINRSGGSTYYADSVKGRFTISRDNAKNTVYLQMNSLKPEDTAVYYCAKDRTSYYSWYGYWGQGTQVTVSS | high polyreactivity
42 | QVQLVESGGRLVQAGGSLRLSCAASGGTFVVYAMGWYSQARGKARELGAAITWIGDSTYYADSVKGRFTISRDNAKNTVYLQMNSLKPEDTAVYYCNAEGGYYLTEYGYWGQGTQETVSS | low polyreactivity
43 | QVQLVESGGGLVQAVGSLRLSCAASGSIYGYAMGWYIQAPGKERELVAAISGRGGRTYYADSVKGRFTISRDNAKNTVYLQMNSLKPEDTAVYYCNFQWRYPYHYTVDYWGQGTQVTVSS | high polyreactivity
